The values that follow come from patent publication US20170102393A1.

The target of assay [1] is αEβ7 integrin (Homo sapiens (Human)) (UniProt P38570). Put plainly: blocking of E-cadherin binding to αEβ7; assay not described.
Assay [2] has as its target α4β7 integrin (Homo sapiens (Human)) (UniProt P13612). As to the kind of experiment: blocking of α4β7 interactions with MadCAM-1, VCAM-1 and fibronectin (range told for the three ligands); assay not described.
The target of assay [3] is integrin β7 (β7 receptor) on cynomolgus monkey peripheral-blood T cells / lymphocytes (cynomolgus monkey (Macaca fascicularis)). As to the kind of experiment: β7 receptor occupancy by flow cytometry against serum concentration, dosed cynomolgus monkeys. In general terms: Flow cytometry measures light scatter and fluorescence of single cells or particles in a stream.
Assay [4] shares this target. As to the kind of experiment: cell-based or functional assay.

UniProt P38570, sequence (P38570 19-1179 limits assumed, form in doubt, chain 1 of 2): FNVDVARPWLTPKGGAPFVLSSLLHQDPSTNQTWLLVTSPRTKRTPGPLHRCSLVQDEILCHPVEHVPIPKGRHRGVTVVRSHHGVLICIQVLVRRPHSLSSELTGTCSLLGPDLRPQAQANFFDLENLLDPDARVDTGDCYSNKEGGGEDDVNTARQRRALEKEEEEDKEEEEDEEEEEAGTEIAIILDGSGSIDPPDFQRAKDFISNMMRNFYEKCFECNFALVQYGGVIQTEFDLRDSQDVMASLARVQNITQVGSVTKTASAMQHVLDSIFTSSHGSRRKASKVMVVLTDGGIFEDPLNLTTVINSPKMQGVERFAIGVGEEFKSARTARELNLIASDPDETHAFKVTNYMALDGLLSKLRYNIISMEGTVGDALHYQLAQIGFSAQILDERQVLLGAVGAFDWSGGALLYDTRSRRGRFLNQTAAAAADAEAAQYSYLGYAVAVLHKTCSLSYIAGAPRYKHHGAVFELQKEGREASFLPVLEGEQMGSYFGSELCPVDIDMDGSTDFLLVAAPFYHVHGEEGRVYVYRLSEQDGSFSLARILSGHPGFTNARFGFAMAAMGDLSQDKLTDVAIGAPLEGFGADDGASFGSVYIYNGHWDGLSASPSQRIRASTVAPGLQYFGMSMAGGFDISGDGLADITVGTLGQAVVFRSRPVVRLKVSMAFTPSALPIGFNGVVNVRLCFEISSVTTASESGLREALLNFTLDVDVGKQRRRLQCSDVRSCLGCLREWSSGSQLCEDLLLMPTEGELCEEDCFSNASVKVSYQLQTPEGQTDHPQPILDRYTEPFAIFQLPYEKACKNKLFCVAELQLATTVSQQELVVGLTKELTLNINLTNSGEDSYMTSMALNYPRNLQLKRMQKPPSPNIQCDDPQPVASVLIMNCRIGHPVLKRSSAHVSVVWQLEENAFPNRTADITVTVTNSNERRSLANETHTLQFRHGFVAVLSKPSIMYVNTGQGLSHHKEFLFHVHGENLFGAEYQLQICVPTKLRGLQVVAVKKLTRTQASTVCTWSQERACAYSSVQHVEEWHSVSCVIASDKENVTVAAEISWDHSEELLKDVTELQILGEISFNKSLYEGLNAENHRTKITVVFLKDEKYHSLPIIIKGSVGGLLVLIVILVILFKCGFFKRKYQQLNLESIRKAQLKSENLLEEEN
UniProt P38570, sequence (beta, as listed by the source limits assumed, form in doubt, chain 2 of 2): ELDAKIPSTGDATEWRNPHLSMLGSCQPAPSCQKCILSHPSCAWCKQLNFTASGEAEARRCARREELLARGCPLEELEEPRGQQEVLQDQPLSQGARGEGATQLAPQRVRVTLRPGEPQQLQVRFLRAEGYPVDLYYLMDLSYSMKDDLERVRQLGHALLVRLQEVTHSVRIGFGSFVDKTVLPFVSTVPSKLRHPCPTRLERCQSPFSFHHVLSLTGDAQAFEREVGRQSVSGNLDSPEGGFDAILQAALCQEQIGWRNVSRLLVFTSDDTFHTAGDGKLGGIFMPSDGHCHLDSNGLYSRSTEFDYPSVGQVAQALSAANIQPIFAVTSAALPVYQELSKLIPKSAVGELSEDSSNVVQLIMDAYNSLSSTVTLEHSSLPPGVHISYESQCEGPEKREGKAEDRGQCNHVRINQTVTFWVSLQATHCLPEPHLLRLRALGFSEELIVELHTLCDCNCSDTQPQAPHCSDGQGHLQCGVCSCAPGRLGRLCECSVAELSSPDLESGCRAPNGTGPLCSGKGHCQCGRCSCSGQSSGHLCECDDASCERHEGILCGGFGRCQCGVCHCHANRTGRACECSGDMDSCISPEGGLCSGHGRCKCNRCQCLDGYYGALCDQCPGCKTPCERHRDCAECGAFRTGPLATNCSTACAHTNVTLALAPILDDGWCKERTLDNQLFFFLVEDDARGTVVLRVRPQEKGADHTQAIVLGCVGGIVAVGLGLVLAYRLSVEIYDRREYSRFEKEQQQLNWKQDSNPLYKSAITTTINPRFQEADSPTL

B1: rhuMAb Beta7, recombinant humanized monoclonal anti-beta7 integrin antibody (antibody, from a related filing, V domains shown)
VH: EVQLVESGGGLVQPGGSLRLSCAASGFFITNNYWGWVRQAPGKGLEWVGYISYSGSTSYNPSLKSRFTISRDTSKNTFYLQMNSLRAEDTAVYYCARTGSSGYFDFWGQGTLVTVSS
VL: DIQMTQSPSSLSASVGDRVTITCRASESVDDLLHWYQQKPGKAPKLLIKYASQSISGVPSRFSGSGSGTDFTLTISSLQPEDFATYYCQQGNSLPNTFGQGTKVEIKR
One may read the IC50 as the point on the concentration scale where inhibition reaches its midpoint. In assay [1], B1 had an IC50 of 5 nM. Further, the IC50 in assay [2] was 0.07 to 0.1 nM. In assay [3], the serum concentration that maintains complete β7-receptor saturation is 1 to 10 µg/mL and the serum level below which available β7 is detected (desaturation) is 10 µg/mL. In assay [4], this molecule registered a CD45RA+ β7intermediate T cells in peripheral blood, increase over baseline, four weekly doses of 25 mg/kg, cynomolgus monkeys of 2.5 fold; a CD45RA- β7high T cells in peripheral blood, increase over baseline, four weekly doses of 25 mg/kg, cynomolgus monkeys of 5 fold; a group mean CD45RA- β7high CD4+ lymphocytes in peripheral blood, increase over baseline, 5 mg/kg IV weekly, cynomolgus monkeys of 4 to 5 fold; a group mean CD45RA- β7high CD4+ lymphocytes in peripheral blood, increase over baseline, 15 or 50 mg/kg IV or SC weekly, cynomolgus monkeys of 5 to 6 fold.
